Measurements: patent US20240400691A1 (FBD BIOLOGICS, published 2024)

Legend:
human CD47 [1] = biological target: T1, human CD47 (human, UniProt Q08722 19-323); assay: flow cytometry on human platelets (CD47 on platelets per paragraph 5), PE goat anti-human IgG
T1 construct: whole, on cells; also called CD47 tf CHO-S; endogenous CD47 on FaDu and NCI-H460 cells
Experimental: (§1) The samples were analyzed using a CytoFLEX flow cytometer (Beckman Coulter Inc., CA, USA).

human PD-L1 [2] = biological target: T2, human PD-L1 (human, UniProt Q9NZQ7 19-290); assay: flow cytometry on PD-L1 tf DLD1 cells in a 1:1 mixture with DLD1 cells, PE goat anti-human IgG [D]
T2 construct: whole, on cells; For the PD-L1 tf DLD1 cells the species of PD-L1 is not restated; also called PD-L1 tf CHO-S; PD-L1 tf DLD1
T2 sequence (Q9NZQ7 19-290): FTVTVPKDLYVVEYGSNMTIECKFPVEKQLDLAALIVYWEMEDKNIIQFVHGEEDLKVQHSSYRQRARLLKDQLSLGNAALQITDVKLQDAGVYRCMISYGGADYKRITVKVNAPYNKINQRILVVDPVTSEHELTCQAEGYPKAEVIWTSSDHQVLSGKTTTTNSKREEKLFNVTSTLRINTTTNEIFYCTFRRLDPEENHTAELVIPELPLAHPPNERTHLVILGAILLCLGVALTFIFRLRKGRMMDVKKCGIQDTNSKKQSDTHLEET
Experimental: The selective binding ability of HCB301_v5 proteins to PD-L1-expressing cells was determined as follows. DLD1 cells were labeled with CellTrace™ CFSE (Thermo, Cat #: C34554) and tf DLD1 cells expressing PD-L1 (PD-L1 tf DLD1) were labeled with Celltrace™ (Thermo, Cat #: C34557) according to the instructions provided by manufacturer. […] The samples were analyzed using a CytoFLEX flow cytometer (Beckman Coulter Inc., CA, USA). Afterwards, the cells were gated according to PE signals to calculate the percentages of different cell types by Kaluza analysis software (Beckman Coulter Inc.).

human CD47 [3] = biological target: T1, human CD47; assay: flow cytometry on CD47 tf CHO-S cells, PE goat anti-human IgG
Experimental: To determine the whole cell binding ability of the HCB301_v5 proteins to CD47 expressed on cell surface, tf CHO-S cells expressing human CD47 (CD47 tf CHO-S) were used as target cells. […] The samples were analyzed using a CytoFLEX flow cytometer (Beckman Coulter Inc., CA, USA).
The EC50 values were determined according to the binding curves.

human PD-L1 [4] = biological target: T2, human PD-L1; assay: flow cytometry competition on PD-L1 tf CHO-S cells against a fixed concentration of biotinylated PD1_G4, streptavidin-PE; IC50 from the table under the curves
human PD-L1 [5] = biological target: T2, human PD-L1; assay: flow cytometry on PD-L1 tf CHO-S cells, PE goat anti-human IgG; EC50 from the table under the curves
Experimental: as §1
The EC50 values were also determined according to the binding curves.

| Binder | binding result (human CD47 [1]) | EC50 (read off the curve) (human PD-L1 [2]) [nM] | binding result (human CD47 [3]) | IC50 (human PD-L1 [4]) [nM] | EC50 (human PD-L1 [5]) [nM] |
| --- | --- | --- | --- | --- | --- |
| h1G4 (antibody, human IgG4 S228P, kappa, V domains shown, also called negative control) VH: QVQLVESGGGLVKPGGSLRLSCAASGFTFSNYGMSWIRQAPGKGLEWVSTISGGGSNIYYADSVKGRFTISRDNAKNSLYLQMNSLRAEDTAVYYCVSYYYGIDFWGQGTSVTVSS VL: DIQMTQSPSSLSASVGDRVTITCKASQDVTTAVAWYQQKPGKAPKLLIYWASTRHTGVPSRFSGSGSGTDFTLTISSLQPEDFATYYCQQHYTIPWTFGGGTKLEIKR | no binding (tested: 20 nM) | – | – | – | – |
| anti-PD-L1 VHH (2H4) (VHH) VHH: QVQLVESGGGVVQPGRSLRLSCAASGGPFMSYAMGWFRQAPGKEREFVAAIRWNGISTFYADSVKGRFTISRDNSKNTLYLQMNSLRAEDTAVYYCAAAQTIVTVPENYHFDYWGQGTQVTVSS | – | ~0.8 | no binding (tested: 500 nM) | 0.392 | 0.22 |
